The values that follow come from PMC10917784 (Nature Communications, 2024).

Settings in all cases: one partner purified
Assay [1] has as its target T1, CD38 on tumor cell lines (Homo sapiens, UniProt P28907).
T1 construct: CD38 on the surface of CD38high (Daudi, Raji) and CD38low (NCI-H929, KMS-12-BM) cell lines; source: endogenous, on Daudi, Raji, NCI-H929 and KMS-12-BM cells
Put plainly: flow cytometry on cells; KMS-12-BM cells, increasing antibody concentrations, 4 °C, 30 min, labelled anti-human IgG secondary; Kd from fit of RFI. (In flow cytometry, cells or beads pass a laser one at a time.)

In assay [2] the target is T1, CD38 on tumor cell lines. Put plainly: flow cytometry on cells; Raji cells, increasing antibody concentrations, 4 °C, 30 min, labelled anti-human IgG secondary; Kd from fit of RFI.
Assay [3] concerns the target T1, CD38 on tumor cell lines. Put plainly: flow cytometry on cells; Daudi cells, increasing antibody concentrations, 4 °C, 30 min, labelled anti-human IgG secondary; Kd from fit of RFI.
For assay [4], the target named is T1, CD38 on tumor cell lines. Put plainly: flow cytometry on cells; NCI-H929 cells, increasing antibody concentrations, 4 °C, 30 min, labelled anti-human IgG secondary; Kd from fit of RFI.

By Kd is commonly meant a measure of binding affinity in units of concentration. A low value points to tighter binding.

B1: daratumumab (antibody, V domains shown)
VH: EVQLLESGGGLVQPGGSLRLSCAVSGFTFNSFAMSWVRQAPGKGLEWVSAISGSGGGTYYADSVKGRFTISRDNSKNTLYLQMNSLRAEDTAVYFCAKDKILWFGEPVFDYWGQGTLVTVSS
VL: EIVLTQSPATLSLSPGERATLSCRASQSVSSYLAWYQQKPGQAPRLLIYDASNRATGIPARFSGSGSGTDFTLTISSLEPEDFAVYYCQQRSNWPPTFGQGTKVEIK
notes: whole antibody in the assay; the PDB entry holds only part of it; also called Darzalex; source: bought: Janssen Biotech Inc
Consider B1, for which the Kd in the assay with CD38 on tumor cell lines [1] came to 0.138 nM; with CD38 on tumor cell lines [2], 0.33 nM; with CD38 on tumor cell lines [3] it was 0.258 nM; in the assay with CD38 on tumor cell lines [4] it was 0.506 nM.
